Experimental data as given in patent US20050112564A1 (published 2005).
No end group written: not given here. *: point of attachment. FITC = O=C1OC2(c3ccc(O)cc3Oc3cc(O)ccc32)c2ccc(NC(=S)*)cc21

Biological target: T1, avidin (UniProt P02701 25-152)
T1 construct: also called avidin of a bar code 01
Test: FITC-peptide incubated with protein-coated bar-coded carriers; fluorescence read in flow tube
Protocol: Carriers of 15 mm in length having a bar code 01 or 02 were prepared by using polymethylmethacrylate fibers as a raw material and introducing carboxyl groups on the surface thereof in the same manner as in Example 1. As in Example 1, 50 carriers having a bar code 01 were dispersed in 10 ml HEPES buffer, 100 μmol hydroxysuccinimide was added thereto, followed by the addition of 100 μmol WSC to succinimidate carboxyl groups, and after washing the carriers with the same buffer, 10 ml of a buffer containing 1 μmol/ml avidin was immediately added thereto to immobilize avidin on the carriers. The carriers were subjected to blocking in 1% BSA solution, and washed with distilled water to prepare carriers to which avidin is bound and which have a bar code 01.
Similarly, a FITC-labeled polypeptide having the […] shown in SEQ ID NO: 7 which consists of 15 amino acids without containing avidin-binding peptide sequence and having FITC at the amino-terminus was synthesized and dissolved in PBS containing 0.1% BSA at a concentration of 2 nmol/ml to prepare a test sample solution.
An apparatus shown in FIGS. 1 and 2 was prepared, and the bar code and fluorescence were detected while passing the solutions prepared in (3) above through a hollow tube in the detection device. As the bar code reader, a hand laser scanner SL-114 (product of Nichiei Intec) was used. […]

T1 sequence (P02701 25-152 limits assumed): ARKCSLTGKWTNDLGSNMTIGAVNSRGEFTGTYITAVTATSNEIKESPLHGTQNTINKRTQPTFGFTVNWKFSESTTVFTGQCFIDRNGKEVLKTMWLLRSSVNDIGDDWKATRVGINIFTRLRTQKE

binding result: no binding
B1: FITC-labeled polypeptide of SEQ ID NO: 7 (15 amino acids without avidin-binding peptide sequence) (peptide)
peptide: {FITC}-ISFENTWLWTSPFSS
